Numbered stars: 1 amine (or outer) side, 2 acyl side, 3 side chain; on linkers, the order of the positions; unused ones are H or OH. * marks the point of attachment. C20 diacid = O=C(O)CCCCCCCCCCCCCCCCCCC(=O)*; C18 diacid = O=C(O)CCCCCCCCCCCCCCCCC(=O)*; C16 diacid = O=C(O)CCCCCCCCCCCCCCC(=O)*; γGlu = O=C(O)[C@H](CCC(=O)[*:2])N[*:1]; AEEA = NCCOCCOCC(=O)O
T1: human calcitonin receptor (human, UniProt P30988 25-474)
T1 sequence (looked up): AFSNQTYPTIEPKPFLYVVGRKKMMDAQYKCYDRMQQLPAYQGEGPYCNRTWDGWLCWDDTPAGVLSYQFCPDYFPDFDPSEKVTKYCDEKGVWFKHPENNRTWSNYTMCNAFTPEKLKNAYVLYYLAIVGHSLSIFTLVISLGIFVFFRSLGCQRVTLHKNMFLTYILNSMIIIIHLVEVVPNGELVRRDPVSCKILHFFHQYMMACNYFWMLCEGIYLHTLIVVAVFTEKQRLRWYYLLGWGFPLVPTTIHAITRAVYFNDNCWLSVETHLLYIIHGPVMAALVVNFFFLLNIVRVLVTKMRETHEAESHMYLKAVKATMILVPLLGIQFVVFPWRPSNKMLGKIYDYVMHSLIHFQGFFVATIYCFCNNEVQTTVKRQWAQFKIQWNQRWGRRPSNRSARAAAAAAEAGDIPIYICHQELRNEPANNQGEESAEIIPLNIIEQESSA

T2: human amylin 3(a) receptor (human calcitonin receptor co-expressed with RAMP-3) (human, UniProt P30988 25-474; O60896 24-148, limits assumed)
T2 sequence (looked up) 1: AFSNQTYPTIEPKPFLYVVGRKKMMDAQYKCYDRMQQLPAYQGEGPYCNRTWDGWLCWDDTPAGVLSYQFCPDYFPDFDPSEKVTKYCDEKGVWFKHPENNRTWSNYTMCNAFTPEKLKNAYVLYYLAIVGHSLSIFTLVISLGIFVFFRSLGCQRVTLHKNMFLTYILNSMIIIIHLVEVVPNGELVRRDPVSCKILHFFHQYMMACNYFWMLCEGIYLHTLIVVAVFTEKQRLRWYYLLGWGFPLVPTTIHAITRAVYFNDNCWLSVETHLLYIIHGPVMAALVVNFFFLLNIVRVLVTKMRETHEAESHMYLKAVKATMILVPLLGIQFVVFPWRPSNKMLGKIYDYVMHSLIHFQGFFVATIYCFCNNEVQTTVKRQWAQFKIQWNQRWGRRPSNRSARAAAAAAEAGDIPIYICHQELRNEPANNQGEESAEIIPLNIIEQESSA
T2 sequence (looked up) 2: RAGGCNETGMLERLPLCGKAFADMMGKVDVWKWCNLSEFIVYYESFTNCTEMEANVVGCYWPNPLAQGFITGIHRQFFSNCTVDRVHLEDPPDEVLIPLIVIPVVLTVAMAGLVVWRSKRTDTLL


Key:
[1] = molecular target: T1, human calcitonin receptor; assay: cell-based or functional assay
[2] = molecular target: T2, human amylin 3(a) receptor (human …); assay: cell-based or functional assay

Binder	hCTR funct. EC50 (pM) [1] [pM]	hAmylin-R funct. EC50 (pM) [2] [pM]
{C18 diacid}-EASELSTAVLGRLSAELAELATLPRTETGPESP-NH2 (SMILES CC(C)C[C@H](NC(=O)[C@H](CCC(=O)O)NC(=O)[C@H](C)NC(=O)[C@H](CO)NC(=O)[C@H](CC(C)C)NC(=O)[C@H](CCCNC(=N)N)NC(=O)CNC(=O)[C@H](CC(C)C)NC(=O)[C@@H](NC(=O)[C@H](C)NC(=O)[C@@H](NC(=O)[C@H](CO)NC(=O)[C@H](CC(C)C)NC(=O)[C@H](CCC(=O)O)NC(=O)[C@H](CO)NC(=O)[C@H](C)NC(=O)[C@H](CCC(=O)O)NC(=O)CCCCCCCCCCCCCCCCC(=O)O)[C@@H](C)O)C(C)C)C(=O)N[C@@H](C)C(=O)N[C@@H](CCC(=O)O)C(=O)N[C@@H](CC(C)C)C(=O)N[C@@H](C)C(=O)N[C@H](C(=O)N[C@@H](CC(C)C)C(=O)N1CCC[C@H]1C(=O)N[C@@H](CCCNC(=N)N)C(=O)N[C@H](C(=O)N[C@@H](CCC(=O)O)C(=O)N[C@H](C(=O)NCC(=O)N1CCC[C@H]1C(=O)N[C@@H](CCC(=O)O)C(=O)N[C@@H](CO)C(=O)N1CCC[C@H]1C(N)=O)[C@@H](C)O)[C@@H](C)O)[C@@H](C)O) [[N-terminal(C18 diacid), 9V, 18A]mimylin]	7	8
{C20 diacid-γGlu}-EASELSTAALGRLSAELHELATYPRTETGSGSP-NH2 (SMILES CC(C)C[C@H](NC(=O)[C@H](C)NC(=O)[C@H](C)NC(=O)[C@@H](NC(=O)[C@H](CO)NC(=O)[C@H](CC(C)C)NC(=O)[C@H](CCC(=O)O)NC(=O)[C@H](CO)NC(=O)[C@H](C)NC(=O)[C@H](CCC(=O)O)NC(=O)CC[C@H](NC(=O)CCCCCCCCCCCCCCCCCCC(=O)O)C(=O)O)[C@@H](C)O)C(=O)NCC(=O)N[C@@H](CCCNC(=N)N)C(=O)N[C@@H](CC(C)C)C(=O)N[C@@H](CO)C(=O)N[C@@H](C)C(=O)N[C@@H](CCC(=O)O)C(=O)N[C@@H](CC(C)C)C(=O)N[C@@H](Cc1c[nH]cn1)C(=O)N[C@@H](CCC(=O)O)C(=O)N[C@@H](CC(C)C)C(=O)N[C@@H](C)C(=O)N[C@H](C(=O)N[C@@H](Cc1ccc(O)cc1)C(=O)N1CCC[C@H]1C(=O)N[C@@H](CCCNC(=N)N)C(=O)N[C@H](C(=O)N[C@@H](CCC(=O)O)C(=O)N[C@H](C(=O)NCC(=O)N[C@@H](CO)C(=O)NCC(=O)N[C@@H](CO)C(=O)N1CCC[C@H]1C(N)=O)[C@@H](C)O)[C@@H](C)O)[C@@H](C)O) [[N-terminal(C20 diacid-gGlu), 23Y, 30S, 31G]mimylin]	14	12
{C16 diacid}-EASELSTAALGRLSAELHELATLPRTETGPESP-NH2 [[N-terminal(C16 diacid)]mimylin]	4	8
{C18 diacid-γGlu}-ASELSTAALGRLSAELHELATLPRTETGSPSP-NH2 (SMILES CC(C)C[C@H](NC(=O)[C@H](C)NC(=O)[C@H](C)NC(=O)[C@@H](NC(=O)[C@H](CO)NC(=O)[C@H](CC(C)C)NC(=O)[C@H](CCC(=O)O)NC(=O)[C@H](CO)NC(=O)[C@H](C)NC(=O)CC[C@H](NC(=O)CCCCCCCCCCCCCCCCC(=O)O)C(=O)O)[C@@H](C)O)C(=O)NCC(=O)N[C@@H](CCCNC(=N)N)C(=O)N[C@@H](CC(C)C)C(=O)N[C@@H](CO)C(=O)N[C@@H](C)C(=O)N[C@@H](CCC(=O)O)C(=O)N[C@@H](CC(C)C)C(=O)N[C@@H](Cc1c[nH]cn1)C(=O)N[C@@H](CCC(=O)O)C(=O)N[C@@H](CC(C)C)C(=O)N[C@@H](C)C(=O)N[C@H](C(=O)N[C@@H](CC(C)C)C(=O)N1CCC[C@H]1C(=O)N[C@@H](CCCNC(=N)N)C(=O)N[C@H](C(=O)N[C@@H](CCC(=O)O)C(=O)N[C@H](C(=O)NCC(=O)N[C@@H](CO)C(=O)N1CCC[C@H]1C(=O)N[C@@H](CO)C(=O)N1CCC[C@H]1C(N)=O)[C@@H](C)O)[C@@H](C)O)[C@@H](C)O) [[N-terminal(C18 diacid-gGlu), des1, 30S, 31P]mimylin]	8	13
{C18 diacid}-EASEVSTAVLGRLSAELHEVATLPRTETGPESP-NH2 (SMILES CC(C)C[C@H](NC(=O)[C@H](CCCNC(=N)N)NC(=O)CNC(=O)[C@H](CC(C)C)NC(=O)[C@@H](NC(=O)[C@H](C)NC(=O)[C@@H](NC(=O)[C@H](CO)NC(=O)[C@@H](NC(=O)[C@H](CCC(=O)O)NC(=O)[C@H](CO)NC(=O)[C@H](C)NC(=O)[C@H](CCC(=O)O)NC(=O)CCCCCCCCCCCCCCCCC(=O)O)C(C)C)[C@@H](C)O)C(C)C)C(=O)N[C@@H](CO)C(=O)N[C@@H](C)C(=O)N[C@@H](CCC(=O)O)C(=O)N[C@@H](CC(C)C)C(=O)N[C@@H](Cc1c[nH]cn1)C(=O)N[C@@H](CCC(=O)O)C(=O)N[C@H](C(=O)N[C@@H](C)C(=O)N[C@H](C(=O)N[C@@H](CC(C)C)C(=O)N1CCC[C@H]1C(=O)N[C@@H](CCCNC(=N)N)C(=O)N[C@H](C(=O)N[C@@H](CCC(=O)O)C(=O)N[C@H](C(=O)NCC(=O)N1CCC[C@H]1C(=O)N[C@@H](CCC(=O)O)C(=O)N[C@@H](CO)C(=O)N1CCC[C@H]1C(N)=O)[C@@H](C)O)[C@@H](C)O)[C@@H](C)O)C(C)C) [[N-terminal(C18 diacid), 5V, 9V, 20V]mimylin]	54	23
{C18 diacid}-EASEISTAIIGRLSAELHELATLPRTETGPESP-NH2 (SMILES CC[C@H](C)[C@H](NC(=O)[C@H](C)NC(=O)[C@@H](NC(=O)[C@H](CO)NC(=O)[C@@H](NC(=O)[C@H](CCC(=O)O)NC(=O)[C@H](CO)NC(=O)[C@H](C)NC(=O)[C@H](CCC(=O)O)NC(=O)CCCCCCCCCCCCCCCCC(=O)O)[C@@H](C)CC)[C@@H](C)O)C(=O)N[C@H](C(=O)NCC(=O)N[C@@H](CCCNC(=N)N)C(=O)N[C@@H](CC(C)C)C(=O)N[C@@H](CO)C(=O)N[C@@H](C)C(=O)N[C@@H](CCC(=O)O)C(=O)N[C@@H](CC(C)C)C(=O)N[C@@H](Cc1c[nH]cn1)C(=O)N[C@@H](CCC(=O)O)C(=O)N[C@@H](CC(C)C)C(=O)N[C@@H](C)C(=O)N[C@H](C(=O)N[C@@H](CC(C)C)C(=O)N1CCC[C@H]1C(=O)N[C@@H](CCCNC(=N)N)C(=O)N[C@H](C(=O)N[C@@H](CCC(=O)O)C(=O)N[C@H](C(=O)NCC(=O)N1CCC[C@H]1C(=O)N[C@@H](CCC(=O)O)C(=O)N[C@@H](CO)C(=O)N1CCC[C@H]1C(N)=O)[C@@H](C)O)[C@@H](C)O)[C@@H](C)O)[C@@H](C)CC) [[N-terminal(C18 diacid), 5I, 9I, 10I]mimylin]	5	10
{C18 diacid}-EAPPLSTAVLGRLSAELHELATLPRTETGPESP-NH2 (SMILES CC(C)C[C@H](NC(=O)[C@H](CCC(=O)O)NC(=O)[C@H](Cc1c[nH]cn1)NC(=O)[C@H](CC(C)C)NC(=O)[C@H](CCC(=O)O)NC(=O)[C@H](C)NC(=O)[C@H](CO)NC(=O)[C@H](CC(C)C)NC(=O)[C@H](CCCNC(=N)N)NC(=O)CNC(=O)[C@H](CC(C)C)NC(=O)[C@@H](NC(=O)[C@H](C)NC(=O)[C@@H](NC(=O)[C@H](CO)NC(=O)[C@H](CC(C)C)NC(=O)[C@@H]1CCCN1C(=O)[C@@H]1CCCN1C(=O)[C@H](C)NC(=O)[C@H](CCC(=O)O)NC(=O)CCCCCCCCCCCCCCCCC(=O)O)[C@@H](C)O)C(C)C)C(=O)N[C@@H](C)C(=O)N[C@H](C(=O)N[C@@H](CC(C)C)C(=O)N1CCC[C@H]1C(=O)N[C@@H](CCCNC(=N)N)C(=O)N[C@H](C(=O)N[C@@H](CCC(=O)O)C(=O)N[C@H](C(=O)NCC(=O)N1CCC[C@H]1C(=O)N[C@@H](CCC(=O)O)C(=O)N[C@@H](CO)C(=O)N1CCC[C@H]1C(N)=O)[C@@H](C)O)[C@@H](C)O)[C@@H](C)O) [[N-terminal(C18 diacid), 3P, 4P, 9V]mimylin]	6	12
{C18 diacid}-EASELSTAVLGKLSAELHELATLPKTETGPESP-NH2 (SMILES CC(C)C[C@H](NC(=O)[C@H](CCC(=O)O)NC(=O)[C@H](Cc1c[nH]cn1)NC(=O)[C@H](CC(C)C)NC(=O)[C@H](CCC(=O)O)NC(=O)[C@H](C)NC(=O)[C@H](CO)NC(=O)[C@H](CC(C)C)NC(=O)[C@H](CCCCN)NC(=O)CNC(=O)[C@H](CC(C)C)NC(=O)[C@@H](NC(=O)[C@H](C)NC(=O)[C@@H](NC(=O)[C@H](CO)NC(=O)[C@H](CC(C)C)NC(=O)[C@H](CCC(=O)O)NC(=O)[C@H](CO)NC(=O)[C@H](C)NC(=O)[C@H](CCC(=O)O)NC(=O)CCCCCCCCCCCCCCCCC(=O)O)[C@@H](C)O)C(C)C)C(=O)N[C@@H](C)C(=O)N[C@H](C(=O)N[C@@H](CC(C)C)C(=O)N1CCC[C@H]1C(=O)N[C@@H](CCCCN)C(=O)N[C@H](C(=O)N[C@@H](CCC(=O)O)C(=O)N[C@H](C(=O)NCC(=O)N1CCC[C@H]1C(=O)N[C@@H](CCC(=O)O)C(=O)N[C@@H](CO)C(=O)N1CCC[C@H]1C(N)=O)[C@@H](C)O)[C@@H](C)O)[C@@H](C)O) [[N-terminal(C18 diacid), 9V, 12K, 25K]mimylin]	8	16
{C20 diacid-γGlu}-ASELSTAALGRLSAELHELATLPRTETGSGSP-NH2 [[N-terminal(C20 diacid-gGlu), des1, 30S, 31G]mimylin]	14	13
{C20 diacid-γGlu-AEEA}-ASELSTAALGRLSAELHELATLPRTETGSGSP-NH2 [[N-terminal(C20 diacid-gGlu-OEG), des1, 30S, 31G]mimylin]	18	27

Reference: patent US20160272683A1 (Novo Nordisk, published 2016)
